T1: FliF of the native flagellar basal body (native MS ring) (Salmonella enterica serovar Typhimurium …, UniProt P15928 1-560)
T1 construct: source: endogenous, basal body purified from Salmonella HK1003 (sucrose density gradient); copies: 34
T1 sequence: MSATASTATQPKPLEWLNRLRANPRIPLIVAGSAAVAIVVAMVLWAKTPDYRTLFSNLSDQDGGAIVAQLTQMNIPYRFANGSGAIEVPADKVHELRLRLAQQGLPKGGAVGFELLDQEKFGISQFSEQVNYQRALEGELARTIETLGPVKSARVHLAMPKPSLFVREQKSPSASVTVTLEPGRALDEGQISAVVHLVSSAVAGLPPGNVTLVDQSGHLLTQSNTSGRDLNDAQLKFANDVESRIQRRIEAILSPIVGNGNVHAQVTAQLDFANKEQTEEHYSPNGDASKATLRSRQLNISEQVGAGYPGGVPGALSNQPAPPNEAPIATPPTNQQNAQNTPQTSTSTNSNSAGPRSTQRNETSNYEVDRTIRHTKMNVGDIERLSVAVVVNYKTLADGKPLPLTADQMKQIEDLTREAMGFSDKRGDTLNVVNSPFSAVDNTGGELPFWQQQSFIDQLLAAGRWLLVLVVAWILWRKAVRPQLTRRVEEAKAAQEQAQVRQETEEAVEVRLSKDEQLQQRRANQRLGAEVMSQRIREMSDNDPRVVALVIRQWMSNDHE


Key:
[1] = molecular target: the molecule itself; experiment: cryo-EM structure; MS ring of full-length FliF (dataset 1, pKOT112) in Buffer S with 0.05% LMNG; 2D classes and 3D refinement with C34 symmetry, 3.7 Å
[2] = molecular target: T1, FliF of the native flagellar basal body …; experiment: cryo-EM structure; 2D class averages of end-on views of the basal body (rivet) purified from Salmonella HK1003; rotational symmetry by autocorrelation and Fourier transformation; assembly formed in cells, purified as a whole; conditions: both partners purified

Binder	stoichiometry N [1]	binding result [2]
full-length Salmonella FliF (MS ring, dataset 1, from pKOT112) (natural protein, also called MS ring formed by full-length FliF; FliF ring dataset 1; source: E. coli BL21 (DE3) carrying pKOT112, MS ring purified from the membrane fraction (sucrose gradient, LMNG); copies: 34) MSATASTATQPKPLEWLNRLRANPRIPLIVAGSAAVAIVVAMVLWAKTPDYRTLFSNLSDQDGGAIVAQLTQMNIPYRFANGSGAIEVPADKVHELRLRLAQQGLPKGGAVGFELLDQEKFGISQFSEQVNYQRALEGELARTIETLGPVKSARVHLAMPKPSLFVREQKSPSASVTVTLEPGRALDEGQISAVVHLVSSAVAGLPPGNVTLVDQSGHLLTQSNTSGRDLNDAQLKFANDVESRIQRRIEAILSPIVGNGNVHAQVTAQLDFANKEQTEEHYSPNGDASKATLRSRQLNISEQVGAGYPGGVPGALSNQPAPPNEAPIATPPTNQQNAQNTPQTSTSTNSNSAGPRSTQRNETSNYEVDRTIRHTKMNVGDIERLSVAVVVNYKTLADGKPLPLTADQMKQIEDLTREAMGFSDKRGDTLNVVNSPFSAVDNTGGELPFWQQQSFIDQLLAAGRWLLVLVVAWILWRKAVRPQLTRRVEEAKAAQEQAQVRQETEEAVEVRLSKDEQLQQRRANQRLGAEVMSQRIREMSDNDPRVVALVIRQWMSNDHE	34 subunits	
FliG of the C ring of the native basal body (wild-type, CCW motor) (natural protein, source: endogenous, basal body purified from Salmonella HK1003 (sucrose density gradient)) MSNLSGTDKSVILLMTIGEDRAAEVFKHLSTREVQALSTAMANVRQISNKQLTDVLSEFEQEAEQFAALNINANEYLRSVLVKALGEERASSLLEDILETRDTTSGIETLNFMEPQSAADLIRDEHPQIIATILVHLKRSQAADILALFDERLRHDVMLRIATFGGVQPAALAELTEVLNGLLDGQNLKRSKMGGVRTAAEIINLMKTQQEEAVITAVREFDGELAQKIIDEMFLFENLVDVDDRSIQRLLQEVDSESLLIALKGAEPPLREKFLRNMSQRAADILRDDLANRGPVRLSQVENEQKAILLIVRRLAETGEMVIGSGEDTYV		binds
